# Measured values as given in PMC8207216.
# pKd: −log10 of the molar value.
# Molecular target: APE1 wild type (human) (UniProt P27695)
# Test: EMSA
# Details: 1 mM EDTA (no catalysis); apparent KD; N at position 16 of strand 1 = abasic ribonucleotide analog (tetrahydrofuran with 2'-OH); EMSA: 2 nM DNA, 0-20 nM APE1, 50 mM Tris pH 8, 1 mM EDTA, 0.2 mg/ml BSA, 1 mM DTT, 5% sucrose, 30 min on ice, 10% native gel
# Sequence of UniProt P27695 (P27695 whole entry): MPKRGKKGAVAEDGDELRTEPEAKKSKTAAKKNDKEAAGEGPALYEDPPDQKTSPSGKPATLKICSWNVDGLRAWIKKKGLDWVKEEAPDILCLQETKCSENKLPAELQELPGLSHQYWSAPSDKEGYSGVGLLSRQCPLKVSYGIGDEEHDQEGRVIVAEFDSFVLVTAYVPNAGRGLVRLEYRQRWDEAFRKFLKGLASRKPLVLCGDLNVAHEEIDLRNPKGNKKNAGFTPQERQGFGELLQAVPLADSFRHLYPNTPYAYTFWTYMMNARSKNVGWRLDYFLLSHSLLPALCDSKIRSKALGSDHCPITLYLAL
sequence,measurement,value
CGTTCGCTGATGCGCNCGACGGATCCGCAT / ATGCGGATCCGTCGAGCGCATCAGCGAACG [30-mer rAP DNA],pKd,8.54
